Measurements published in patent US20110166062A1 (INDIANA UNIVERSITY RESEARCH AND TECHNOLOGY, published 2011).
Bridges are numbered along the chain shown (N, C = ends). Where no end group is shown, it is not given here. [ ]: non-standard residue; d: D form. Aib = CC(C)(N)C(=O)O

B1: mt-66 (peptide)
peptide: HSQGTFTSDYSKYLDEIHQKEFIAWLLAQ-NH2
B2: mt-93 (peptide)
peptide: HSQGTFTSDYSIYLDEKHQKEFIAWLLAQ-NH2
modifications: lactam 16-20, 17-21; N-terminus assumed
SMILES: CC[C@H](C)[C@H](NC(=O)[C@H](Cc1ccccc1)NC(=O)[C@@H]1CCC(=O)NCCCC[C@@H]2NC(=O)[C@@H](NC(=O)[C@H](CC(=O)O)NC(=O)[C@H](CC(C)C)NC(=O)[C@H](Cc3ccc(O)cc3)NC(=O)[C@@H](NC(=O)[C@H](CO)NC(=O)[C@H](Cc3ccc(O)cc3)NC(=O)[C@H](CC(=O)O)NC(=O)[C@H](CO)NC(=O)[C@@H](NC(=O)[C@H](Cc3ccccc3)NC(=O)[C@@H](NC(=O)CNC(=O)[C@H](CCC(N)=O)NC(=O)[C@H](CO)NC(=O)[C@@H](N)Cc3c[nH]cn3)[C@@H](C)O)[C@@H](C)O)[C@@H](C)CC)CCC(=O)NCCCC[C@H](NC(=O)[C@H](CCC(N)=O)NC(=O)[C@H](Cc3c[nH]cn3)NC2=O)C(=O)N1)C(=O)N[C@@H](C)C(=O)N[C@@H](Cc1c[nH]c2ccccc12)C(=O)N[C@@H](CC(C)C)C(=O)N[C@@H](CC(C)C)C(=O)N[C@@H](C)C(=O)N[C@@H](CCC(N)=O)C(N)=O
B3: mt-102 (peptide)
peptide: Y[Aib]EGTFISDYSIAMDKIHQQDFVCWLLAQKGKKNWLKHNITQ-NH2
B4: mt-106 (peptide)
peptide: YAEGTFISDYSIAMDKIHQQDFVNWLLAQ-NH2
B5: mt-142 (peptide)
peptide: YAEGTFTSDYSIYMDEQAAKEFVNWLLAGGPSSGAPPPS-NH2
modifications: lactam 16-20; N-terminus assumed
SMILES: CC[C@H](C)[C@H](NC(=O)[C@H](CO)NC(=O)[C@H](Cc1ccc(O)cc1)NC(=O)[C@H](CC(=O)O)NC(=O)[C@H](CO)NC(=O)[C@@H](NC(=O)[C@H](Cc1ccccc1)NC(=O)[C@@H](NC(=O)CNC(=O)[C@H](CCC(=O)O)NC(=O)[C@H](C)NC(=O)[C@@H](N)Cc1ccc(O)cc1)[C@@H](C)O)[C@@H](C)O)C(=O)N[C@@H](Cc1ccc(O)cc1)C(=O)N[C@@H](CCSC)C(=O)N[C@@H](CC(=O)O)C(=O)N[C@H]1CCC(=O)NCCCC[C@@H](C(=O)N[C@@H](CCC(=O)O)C(=O)N[C@@H](Cc2ccccc2)C(=O)N[C@H](C(=O)N[C@@H](CC(N)=O)C(=O)N[C@@H](Cc2c[nH]c3ccccc23)C(=O)N[C@@H](CC(C)C)C(=O)N[C@@H](CC(C)C)C(=O)N[C@@H](C)C(=O)NCC(=O)NCC(=O)N2CCC[C@H]2C(=O)N[C@@H](CO)C(=O)N[C@@H](CO)C(=O)NCC(=O)N[C@@H](C)C(=O)N2CCC[C@H]2C(=O)N2CCC[C@H]2C(=O)N2CCC[C@H]2C(=O)N[C@@H](CO)C(N)=O)C(C)C)NC(=O)[C@H](C)NC(=O)[C@H](C)NC(=O)[C@H](CCC(N)=O)NC1=O
B6: mt-145 (peptide)
peptide: YAQGTFISDYSKYLDEQAAKEFVNWLLAGGPSSGAPPPS-NH2
modifications: lactam 16-20; N-terminus assumed
SMILES: CC[C@H](C)[C@H](NC(=O)[C@H](Cc1ccccc1)NC(=O)[C@@H](NC(=O)CNC(=O)[C@H](CCC(N)=O)NC(=O)[C@H](C)NC(=O)[C@@H](N)Cc1ccc(O)cc1)[C@@H](C)O)C(=O)N[C@@H](CO)C(=O)N[C@@H](CC(=O)O)C(=O)N[C@@H](Cc1ccc(O)cc1)C(=O)N[C@@H](CO)C(=O)N[C@@H](CCCCN)C(=O)N[C@@H](Cc1ccc(O)cc1)C(=O)N[C@@H](CC(C)C)C(=O)N[C@@H](CC(=O)O)C(=O)N[C@H]1CCC(=O)NCCCC[C@@H](C(=O)N[C@@H](CCC(=O)O)C(=O)N[C@@H](Cc2ccccc2)C(=O)N[C@H](C(=O)N[C@@H](CC(N)=O)C(=O)N[C@@H](Cc2c[nH]c3ccccc23)C(=O)N[C@@H](CC(C)C)C(=O)N[C@@H](CC(C)C)C(=O)N[C@@H](C)C(=O)NCC(=O)NCC(=O)N2CCC[C@H]2C(=O)N[C@@H](CO)C(=O)N[C@@H](CO)C(=O)NCC(=O)N[C@@H](C)C(=O)N2CCC[C@H]2C(=O)N2CCC[C@H]2C(=O)N2CCC[C@H]2C(=O)N[C@@H](CO)C(N)=O)C(C)C)NC(=O)[C@H](C)NC(=O)[C@H](C)NC(=O)[C@H](CCC(N)=O)NC1=O
B7: mt-146 (peptide)
peptide: YAQGTFISDYSKYLDEQAAKEFVNWLLAGGPSSGAPPPS-NH2
modifications: lactam 16-20; N-terminus assumed
SMILES: CC[C@H](C)[C@H](NC(=O)[C@H](Cc1ccccc1)NC(=O)[C@@H](NC(=O)CNC(=O)[C@H](CCC(N)=O)NC(=O)[C@H](C)NC(=O)[C@@H](N)Cc1ccc(O)cc1)[C@@H](C)O)C(=O)N[C@@H](CO)C(=O)N[C@@H](CC(=O)O)C(=O)N[C@@H](Cc1ccc(O)cc1)C(=O)N[C@@H](CO)C(=O)N[C@@H](CCCCN)C(=O)N[C@@H](Cc1ccc(O)cc1)C(=O)N[C@@H](CC(C)C)C(=O)N[C@@H](CC(=O)O)C(=O)N[C@H]1CCC(=O)NCCCC[C@@H](C(=O)N[C@@H](CCC(=O)O)C(=O)N[C@@H](Cc2ccccc2)C(=O)N[C@H](C(=O)N[C@@H](CC(N)=O)C(=O)N[C@@H](Cc2c[nH]c3ccccc23)C(=O)N[C@@H](CC(C)C)C(=O)N[C@@H](CC(C)C)C(=O)N[C@@H](C)C(=O)NCC(=O)NCC(=O)N2CCC[C@H]2C(=O)N[C@@H](CO)C(=O)N[C@@H](CO)C(=O)NCC(=O)N[C@@H](C)C(=O)N2CCC[C@H]2C(=O)N2CCC[C@H]2C(=O)N2CCC[C@H]2C(=O)N[C@@H](CO)C(N)=O)C(C)C)NC(=O)[C@H](C)NC(=O)[C@H](C)NC(=O)[C@H](CCC(N)=O)NC1=O
B8: mt-151 (peptide)
peptide: YSQGTFTSDYSKYLDEQAAKEFIAWLLAGGPSSGAPPPS-NH2
modifications: lactam 16-20; N-terminus assumed
SMILES: CC[C@H](C)[C@H](NC(=O)[C@H](Cc1ccccc1)NC(=O)[C@H](CCC(=O)O)NC(=O)[C@@H]1CCCCNC(=O)CC[C@H](NC(=O)[C@H](CC(=O)O)NC(=O)[C@H](CC(C)C)NC(=O)[C@H](Cc2ccc(O)cc2)NC(=O)[C@H](CCCCN)NC(=O)[C@H](CO)NC(=O)[C@H](Cc2ccc(O)cc2)NC(=O)[C@H](CC(=O)O)NC(=O)[C@H](CO)NC(=O)[C@@H](NC(=O)[C@H](Cc2ccccc2)NC(=O)[C@@H](NC(=O)CNC(=O)[C@H](CCC(N)=O)NC(=O)[C@H](CO)NC(=O)[C@@H](N)Cc2ccc(O)cc2)[C@@H](C)O)[C@@H](C)O)C(=O)N[C@@H](CCC(N)=O)C(=O)N[C@@H](C)C(=O)N[C@@H](C)C(=O)N1)C(=O)N[C@@H](C)C(=O)N[C@@H](Cc1c[nH]c2ccccc12)C(=O)N[C@@H](CC(C)C)C(=O)N[C@@H](CC(C)C)C(=O)N[C@@H](C)C(=O)NCC(=O)NCC(=O)N1CCC[C@H]1C(=O)N[C@@H](CO)C(=O)N[C@@H](CO)C(=O)NCC(=O)N[C@@H](C)C(=O)N1CCC[C@H]1C(=O)N1CCC[C@H]1C(=O)N1CCC[C@H]1C(=O)N[C@@H](CO)C(N)=O
B9: mt-155 (peptide)
peptide: YSQGTFTSDYSKYLDEQAAKEFVNWLLAGGPSSGAPPPS-NH2
modifications: lactam 12-16; N-terminus assumed
SMILES: CC(C)C[C@H](NC(=O)[C@H](CC(C)C)NC(=O)[C@H](Cc1c[nH]c2ccccc12)NC(=O)[C@H](CC(N)=O)NC(=O)[C@@H](NC(=O)[C@H](Cc1ccccc1)NC(=O)[C@H](CCC(=O)O)NC(=O)[C@H](CCCCN)NC(=O)[C@H](C)NC(=O)[C@H](C)NC(=O)[C@H](CCC(N)=O)NC(=O)[C@@H]1CCC(=O)NCCCC[C@H](NC(=O)[C@H](CO)NC(=O)[C@H](Cc2ccc(O)cc2)NC(=O)[C@H](CC(=O)O)NC(=O)[C@H](CO)NC(=O)[C@@H](NC(=O)[C@H](Cc2ccccc2)NC(=O)[C@@H](NC(=O)CNC(=O)[C@H](CCC(N)=O)NC(=O)[C@H](CO)NC(=O)[C@@H](N)Cc2ccc(O)cc2)[C@@H](C)O)[C@@H](C)O)C(=O)N[C@@H](Cc2ccc(O)cc2)C(=O)N[C@@H](CC(C)C)C(=O)N[C@@H](CC(=O)O)C(=O)N1)C(C)C)C(=O)N[C@@H](C)C(=O)NCC(=O)NCC(=O)N1CCC[C@H]1C(=O)N[C@@H](CO)C(=O)N[C@@H](CO)C(=O)NCC(=O)N[C@@H](C)C(=O)N1CCC[C@H]1C(=O)N1CCC[C@H]1C(=O)N1CCC[C@H]1C(=O)N[C@@H](CO)C(N)=O

Each binder was assayed against glucagon receptor (UniProt P47871 26-477, limits assumed) (assay: cell-based or functional assay).
Chain of glucagon receptor (P47871 26-477 limits assumed): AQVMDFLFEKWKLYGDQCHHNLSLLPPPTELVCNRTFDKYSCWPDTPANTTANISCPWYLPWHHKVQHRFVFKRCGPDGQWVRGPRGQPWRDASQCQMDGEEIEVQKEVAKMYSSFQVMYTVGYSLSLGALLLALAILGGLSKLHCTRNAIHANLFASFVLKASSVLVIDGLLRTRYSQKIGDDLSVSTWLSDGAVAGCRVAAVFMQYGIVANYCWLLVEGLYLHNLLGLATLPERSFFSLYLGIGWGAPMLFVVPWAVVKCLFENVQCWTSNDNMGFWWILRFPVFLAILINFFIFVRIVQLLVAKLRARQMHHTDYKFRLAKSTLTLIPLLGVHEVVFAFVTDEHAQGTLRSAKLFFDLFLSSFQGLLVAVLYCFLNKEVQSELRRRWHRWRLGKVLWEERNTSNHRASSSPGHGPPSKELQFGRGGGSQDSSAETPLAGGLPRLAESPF

Binder	EC50 [pM]	relative activity [%]
B1	2000	13
B2	3000	–
B3	799000	0.02
B4	165000	0.11

The binders below were run against GLP-1 receptor (UniProt P43220 24-463, limits assumed) (assay: cell-based or functional assay).

Binder	EC50 [pM]	relative activity [%]
B1	130	38.5
B2	40	–
B3	98400	0.06
B4	264000	0.02
B5	41	163
B6	9940	–
B7	13100	–
B8	126	–
B9	25	–

The binders below were run against T1, GIP receptor (UniProt P48546 22-466) (assay: cell-based or functional assay).
T1 sequence (looked up): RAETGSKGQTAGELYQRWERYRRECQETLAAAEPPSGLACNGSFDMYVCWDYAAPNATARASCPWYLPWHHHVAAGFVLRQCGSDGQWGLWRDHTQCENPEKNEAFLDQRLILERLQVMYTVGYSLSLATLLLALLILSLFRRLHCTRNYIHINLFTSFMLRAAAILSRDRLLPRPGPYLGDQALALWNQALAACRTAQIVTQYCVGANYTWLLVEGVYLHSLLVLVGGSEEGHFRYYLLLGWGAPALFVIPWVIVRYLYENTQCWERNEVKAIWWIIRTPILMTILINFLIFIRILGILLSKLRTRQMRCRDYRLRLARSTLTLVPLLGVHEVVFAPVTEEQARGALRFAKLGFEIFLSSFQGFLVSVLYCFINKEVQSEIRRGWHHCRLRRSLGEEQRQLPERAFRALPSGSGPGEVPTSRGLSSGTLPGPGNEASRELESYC

Binder	EC50 [pM]	relative activity [%]
B5	132	36.4
B6	1090	–
B7	391	–
B8	852	–
B9	665	–
